US20220226486A1 (SYNTAB THERAPEUTICS, published 2022)
Ends that are not written are not given here.

Target: T1, αvβ6 Integrin (human, UniProt P06756 31-1048; P18564 22-788)
T1 construct: whole, on cells; also called αvβ6 Integrin surface antigen
Experiment: flow cytometry, 10 nM biotinylated binder on human tumor cell lines, Streptavidin-PerCP-Cy5.5
Method: The binding capability of peptides or peptidomimetics, of synthetic compounds according to the invention to different cell lines displaying particular targets was investigated by using flow cytometry. Detached cells were incubated with biotinylated peptide/peptidomimetic or biotinylated synthetic compound in blocking buffer for at least 30 min of ice. The cells were washed twice with washing buffer followed by incubation with streptavidin labeled with the Peridinin-chlorophyll protein PerCP-Cy5.5 (BD Biosciences) for 15 minutes on ice. After one additional wash step, samples were analyzed using FACS Canto (at least 10,000 cells per sample were counted) for cells which have bound the biotinylated reagent plus the streptavidin-PerCP-Cy5.5. Overlay histograms of cells incubated with peptide or control peptide were generated and the geometrical mean fluorescence of each sample was determined in FloJo. The EC50 measurements were calculated using Graph Prism software.

T1 sequence (P06756 31-1048, chain 1 of 2): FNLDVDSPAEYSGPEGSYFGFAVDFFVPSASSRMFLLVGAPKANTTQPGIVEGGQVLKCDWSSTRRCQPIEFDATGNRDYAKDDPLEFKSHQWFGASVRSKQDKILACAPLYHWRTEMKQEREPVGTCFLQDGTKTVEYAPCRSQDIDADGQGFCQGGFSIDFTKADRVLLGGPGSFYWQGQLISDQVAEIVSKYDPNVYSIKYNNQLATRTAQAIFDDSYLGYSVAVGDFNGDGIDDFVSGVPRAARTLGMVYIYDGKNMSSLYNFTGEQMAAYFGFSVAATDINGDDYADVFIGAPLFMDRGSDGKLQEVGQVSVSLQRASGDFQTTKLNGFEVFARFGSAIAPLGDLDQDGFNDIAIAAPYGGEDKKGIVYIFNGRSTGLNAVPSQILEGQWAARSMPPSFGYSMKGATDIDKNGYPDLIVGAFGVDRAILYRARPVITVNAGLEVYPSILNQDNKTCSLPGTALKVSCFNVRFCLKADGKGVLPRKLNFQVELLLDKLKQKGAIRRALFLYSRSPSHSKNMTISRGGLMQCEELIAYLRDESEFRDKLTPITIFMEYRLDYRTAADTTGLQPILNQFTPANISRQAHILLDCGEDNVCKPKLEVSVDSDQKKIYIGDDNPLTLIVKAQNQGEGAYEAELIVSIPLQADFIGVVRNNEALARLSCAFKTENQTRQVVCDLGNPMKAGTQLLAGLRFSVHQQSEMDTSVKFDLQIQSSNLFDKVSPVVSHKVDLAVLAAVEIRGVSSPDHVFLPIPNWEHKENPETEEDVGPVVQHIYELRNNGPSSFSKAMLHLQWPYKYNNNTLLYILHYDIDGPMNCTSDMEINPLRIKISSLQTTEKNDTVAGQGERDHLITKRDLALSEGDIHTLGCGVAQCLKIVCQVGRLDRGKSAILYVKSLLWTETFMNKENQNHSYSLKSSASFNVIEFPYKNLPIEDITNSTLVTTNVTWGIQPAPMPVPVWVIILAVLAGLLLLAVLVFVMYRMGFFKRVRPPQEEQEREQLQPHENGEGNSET
T1 sequence (P18564 22-788, chain 2 of 2): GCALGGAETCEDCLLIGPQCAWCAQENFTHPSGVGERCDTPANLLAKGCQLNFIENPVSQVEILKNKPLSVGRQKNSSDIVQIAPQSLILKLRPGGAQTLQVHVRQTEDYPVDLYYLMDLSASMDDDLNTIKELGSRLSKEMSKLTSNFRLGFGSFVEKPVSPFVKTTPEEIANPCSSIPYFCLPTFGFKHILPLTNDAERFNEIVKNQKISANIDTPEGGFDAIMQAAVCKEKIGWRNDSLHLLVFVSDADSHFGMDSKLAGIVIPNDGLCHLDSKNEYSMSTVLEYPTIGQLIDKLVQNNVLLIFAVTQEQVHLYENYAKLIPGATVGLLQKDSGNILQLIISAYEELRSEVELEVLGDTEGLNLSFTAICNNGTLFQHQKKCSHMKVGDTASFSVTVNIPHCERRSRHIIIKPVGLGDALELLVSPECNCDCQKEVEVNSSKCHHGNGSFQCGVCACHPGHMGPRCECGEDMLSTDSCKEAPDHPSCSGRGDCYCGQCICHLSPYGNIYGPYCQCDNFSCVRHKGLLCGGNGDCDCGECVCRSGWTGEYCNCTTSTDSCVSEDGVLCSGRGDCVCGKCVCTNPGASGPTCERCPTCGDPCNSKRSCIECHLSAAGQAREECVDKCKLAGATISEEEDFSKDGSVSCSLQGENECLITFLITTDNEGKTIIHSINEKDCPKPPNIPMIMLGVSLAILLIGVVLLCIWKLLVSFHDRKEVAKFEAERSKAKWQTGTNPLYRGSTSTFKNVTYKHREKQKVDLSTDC

binding result: binds
B1: biotinylated peptide binder SEQ ID No 2 targeting αvβ6 Integrin (peptide)
peptide: RGDLATLRQL
modifications: also: biotinylated, site not given here
notes: Synthetic peptide, biotinylated for flow cytometry
